Experimental data published in paper doi:10.1101/2021.01.29.428744.

Biological target: AlexaFluor594-tagged α-SYN pre-formed fibrils (PFFs) (human) (UniProt P37840)
Assay: two-color coincidence detection

[…]1 (from UniProt Q9H0R8 1-117) (natural protein)
relative presence of GFP species in the aggregates: 0.14
